A short description of the data set: soluble on expression in E. coli; label from the status in PepcDB or PDB records.
As to “VPMDELNERIFKEVVMYLRQHIKNYDNILDALRSTFHSTNHVEKLFFGGKINMLNQPEFHDITRVRSLLSLIEKEQDVLKLVQSPHTGISIKIGKENDYEEMENCSLITASYSVDQKQIGSIAIIGPTRMNYSRVVSLLQHVTSDLSKALTSLYDE”, the “soluble on expression in E. coli” value was “not soluble”.
With “MTVSTPPSIATGNAPSPDYRVEILSESLPFIQKFRGKTIVVKYGGAAMTSPELKSSVVSDLVLLACVGLRPILVHGGGPDINRYLKQLNIPAEFRDGLRVTDATTMEIVSMVLVGKVNKNLVSLINAAGATAVGLSGHDGRLLTARPVPNSAQLGFVGEVARVDPSVLRPLVDYGYIPVIASVAADDSGQAYNINADTVAGELAAALGAEKLILLTDVAGILENKEDPSSLIKEIDIKGVKKMIEDGKVAGGMIPKVKCCIRSLAQGVKTASIIDGRRQHSLLHEIMSDEGAGTMITG”, the “soluble on expression in E. coli” value is recorded as “soluble”.
In the case of “MTAPVPTCNMSGNPINLHKLTLIMPLPSPEARQFSLKLQTLIAEKIGKHGNWIPFSRFMELVLYAPQYGYYTGGSHKIGNTGDFITAPTLTSLFAQTLARQLQELLSQTAGNIYEFGAGTGQLAADLLGSISDGISRYYIIEISPELAARQKNLIQARAPEASQKVVHLTALPEAFDGIIIGNEVLDAMPVEIVRKNEGGSFEHVGVCLDNDRFTYSARPLHDLQLSALASLYFPQTDYPYTSELHPQQYAFIRTLASRLEHGCMIFIDYGFDAAQYYHPQRNQGTLIGHYRHHIIHNPFDFIGLADLTAHVNFTDIAQAGTDAGLDLIGYLPQSHFLLNLGITELLAQTGKTDSAAYICEAAAVQKLIDQHEMGELFKVIAFGKNIGIDWAGFRFGDICHKL” it was “not soluble”; in that of “LTFSLNFATSSKDSYGTGWLIDWKGDENKPSNTDPFLIYLATNLHVVDALRNPQDYEPYNKDSNGQDYGNRDITHFFALGKYTDPGLLGVETKE”, “soluble”; in that of “MGSDKIHHHHHHMKVVKFGGSSLASSQQLYKVLNIIKSDYTRRFVVVSAPGKRYEEDLKMTDALIQYYQNYINGKDIVKDQTWIINRYQEIISDLSLGSTIAEEITRSIEQLASLPIENNQFLYDCFLAAGEDNNAKLVATFFNQNDIPARYVHPNEAGIIVTKEPCNARIIPGSYDKIENLCLYNEVLVIPGFFGVTEDNQICTFSRGGSDITGSLIAAGIKADLYENFTDVDGIFAAHPGVVKNPHAIPELTYKEMRELAYAGFSVLHDEALLPAYRGRIPLVIKNTNNPQQPGTKIVLKHTRSNIAVTGIASDSRFASINVSKYLMNREVGFGRKVLQILEDLNISFEHMPTGIDDLSIVLREKELTPIKEQEILNYLTRKLEVDYVDIQHNLSTIVIVGENMKSQIGVTATATQALSREKINITMISQGSSEVSIMFVINSKDEKRAIKALYETFFQK”, “not soluble”.
Take “MSLNWEHLLSLKRQGDTAKRLRIEQDDTRLGFEVDYDRIIFSAPFRSLQDKTQVIPLSKTDFVHTRLTHSLEVSVVGRSLGRMVGKKLLEKYPHLEQVYGYKFNDFGAIVAAAALAHDIGNPPFGHSGEKAIGEFFKNGYGKRYKDSLTAKEYQDLIKFEGNANGFKVLSQSKPGAQGGLRLSYATLGAFMKYPKESLPHKPSDHIADKKYGFFQSERALFEDVAQELGLLKRSTTDDVSWSRHPLAYLVEAADDICYTIIDFEDGINLGLIPEEYALEYMVKLVGQTIDRNKYNALQETSDRVSYLRALAIGTLINESVDTFMKYEEEILAGTFDQSLIDKSNYQAQITDIINLSIERIYNSREVIEKEIAGYEILSTLLEARCRALDNNDTHYNQLIQQLLAPNDHSEKSLYENLIQICAEVSTMTDGKALRNYKKIKGLDEGHHHHHH”: the “soluble on expression in E. coli” value is given as “soluble”.
“MKRKFLIASHGNLAKGFQSSLDILADKGKELAVINAYVTPEDYTPIIQTFLQSLGAEEQAIILTDLYGGSVNQKIVQEVMTTKPDNVFIISNANLAIALSLIFLKEGEKLTKEDIQAAIAEAQIQFVELNPSNEEENFF”: the “soluble on expression in E. coli” value is on record as “not soluble”.
For the sequence “MEYKSSPKRPYYLRGFYDWLVDNSFTPYLVVDATYLGVNVPVEYVKDGQIVLNLSASATGNLQLTNDFIQFNQRFKGVSRELYIPMGAALAIYARENGDGMMFEPEEIYDELNIEPDTEQPTGFYEAVD”, the “soluble on expression in E. coli” value is reported as “soluble”.
As for “MREAMFYEKLDDNKVRCHICPRHCIIKEGERGFCWNRENINGVLYAVGYGKVCSLAIDPIEKKPLFHFYPTTQVVSLAIGGCNFRCLHCQNWTISQFPPDEIPYREMTPEEIVEVAIRYNCPGISYTYTEPTVYYEFMYDTSVIARENGMFNVMITNGYIEKEPLKALPVDAMNIDIKGNADFYKKVCKATLEPVLETCKLAKKLGIWVEVTNLIVPNYNDNIDDLLFIIHFVRDELGRETPLHFSRFHPDYKLTDVPPTPIETLEMARNLAIEEGLKYVYIGNVPGHEGENTYCPNCGALLIERYIFNAKIINLDVETKRCKICGEKIDIVL”, the “soluble on expression in E. coli” value is recorded as “not soluble”.
As to “MLGGNNDNPVPQVLMNDSQFRYQSNTSLNQLHLLGTMRAGCTIDPVNYFANDNLAPMMRLNSTRGRETENNNIMQRQQKLQISLNYNYNNNNTVVQDEVPKQNLVSTGLRLSYDDDERNSSVTSANGSITTPVYQSLGDNIRLDLNRQNDELDQFIKFRADQMAKGVRDIKQRHVTSFVTALEKDVSKKLQEKDHEIESMNKKNRELVDKIKQVAVEAQNWHYKAKYNESVVNALKVNLQQVMSHGNDNNAVGGGVADHHQMKEGFGDSEIDDEAASYNYLNIPGMPSTGMRCKLCNVKNVSVLLVPCRHLSLCKDCDVFTGVCPVCQSLKTSSVQVFFF”, the “soluble on expression in E. coli” value is recorded as “soluble”.
As for “AEKANQVSNIKTQLAMEYMRGQDYRQATASIEDALKSDPKNELAWLVRAEIYQYLKVNDKAQESFRQALSIKPDSAEINNNYGWFLCGRLNRPAESMAYFDKALADPTYPTPYIANLNKGICSAKQGQFGLAEAYLKRSLAAQPQFPPAFKELARTKMLAGQLGDADYYFKKYQSRVEVLQADDLLLGWKIAKALGNAQAAYEYEAQLQANFPYSEELQTVLTGQ”, the entry is “soluble”; as for “MSLSAPASEIAALILRGFDDYREQFREITDGARARFEQAQWQEAQRASAQRINLYEEKVAETVAGLRAGLADSELLDVERWPIIKSAYIAQIDLRLDDELAETWFNSIFCGLFSHDNISDGTMFVHTTRPSLRAHARAPYTRTYRPGGDLRQALEKIFDDYRFDVPYDDRERDLERIDALLHSNLPDWVCKDPDLAIELIGSVFYRNKGAYLVGRLFTPDEQWPLVFPLLHREDHGIQFDTVITDEAEVSIIFSFTRSYFMVDVPVPAELVAFLKRLLPGKHLAELYTSIGFYKQGKSEFYRALINHLATTDDRFVMAPGVRGMVMSVFTLPGFNTVFKIIKDRFNPSKSVDHATVIQKYQLVKNHDRVGRLADTQQFADFRFPVSKFEPECLAELLEVAPSTVVMEGDVVLIRHCWTERRMTPLNIYLENASEAQTREALNDYGLAIKQLAAANIFPGDMLLKNFGVTRHGRVVFYDYDEICYLTEVNFRYIPEPRFPEDEMSSEPWYSVGPNDVFPEEFPRFLFVDLNQRRLFAKLHGNLYDAKYWQGLQEQIREGKVIDVFPYRRQETPEQLLEGHHHHHH”, “soluble”.
With “MGSDKIHHHHHHIFSSCTDDFEKLNTSNIQVDPADLPFAAQCTEPMTYCYPPQQNMFQFWTNLTIDLYGGYFMTPNGNFTNGDMGENRGHSGGMYENYYLHIFNNTRRIIAQCDASGERGLSGVMRIVQAYGTLMTTDAYGPIPYSSILSGENEVYFEFDSQKDLYKAMLEDLSTAITDISAMGADEIAKLKSFDCWCNGDKDLWVKIANTMKLRMALRLSKRETEAGNAGMNLKAIATEAAQNTLATVNKDILIDKSLENEMWLMFNWGDCGFNANLVTIMSGTKDPRQPLYMTLNTGDIKNEAGTTTVAANSQYLGIRFASGLPAKPNSWGNFSGWIQGNNGSSYSMPLPIMKAAEAYFLLAEAKLRWDIGSESVKNLYENGIRVSMTNELAYRGAYAGIKEYPEGAVDAYINGTSTQIDYTDPIKAELSTPAVNKLSVKWDESASNEEKLERIITQKWLALFPLSTEGWAEQRRTGYPRFFPAFVNESNGAVNTEEGVRRVIYSSQAYDANAKGVEGGIKLLDEENSSKFGISGDKGGTHLWWDNADKGNF”, the “soluble on expression in E. coli” value was “not soluble”.
In the case of “MAHHHHHHMARRLQQAWRAFAARRERRYRAAAVAQCARKRLEREEVWQLVWQDQFTELDMLCMLERQYIEEQQHVKRVRLYKYLCDPNGATNDDCGTQTPGAFNADADLLKWATLYDE” it was “not soluble”.

Values taken from the DeepSol protein solubility set.
